Laboratory results taken from article PMC4686830, “Ankyrin-mediated self-protection during cell invasion by the bacterial predator Bdellovibrio bacteriovorus” (Nature Communications, 2015).

T1: Bd3459:Bd3460 complex (Bd3459^M/Bd3460) (Bdellovibrio bacteriovorus, UniProt Q6MHT0, K38M)
T1 construct: 1:1 heterodimer; with Ankyrin repeat protein (self-protection protein)
T1 sequence (Q6MHT0 38-446 K38M): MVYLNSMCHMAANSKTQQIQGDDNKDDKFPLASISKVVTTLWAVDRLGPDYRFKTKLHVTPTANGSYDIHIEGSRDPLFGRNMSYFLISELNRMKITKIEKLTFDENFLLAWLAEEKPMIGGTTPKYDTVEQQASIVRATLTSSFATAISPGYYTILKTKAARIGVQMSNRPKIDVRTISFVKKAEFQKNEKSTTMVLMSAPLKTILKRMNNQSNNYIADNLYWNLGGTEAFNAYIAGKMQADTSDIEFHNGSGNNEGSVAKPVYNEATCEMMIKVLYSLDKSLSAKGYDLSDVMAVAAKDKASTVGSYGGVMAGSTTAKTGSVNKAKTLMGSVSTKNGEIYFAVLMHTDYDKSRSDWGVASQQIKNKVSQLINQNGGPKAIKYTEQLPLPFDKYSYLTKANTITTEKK
T1 sequence (Q6MHS9 25-220 A25M partner limits assumed): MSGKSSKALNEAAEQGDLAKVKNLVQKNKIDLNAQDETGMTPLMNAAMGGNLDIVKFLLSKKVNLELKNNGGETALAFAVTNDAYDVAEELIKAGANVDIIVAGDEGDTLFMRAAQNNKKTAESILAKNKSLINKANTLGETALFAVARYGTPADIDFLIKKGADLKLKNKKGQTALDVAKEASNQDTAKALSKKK

T2: Bd0816 DD-endopeptidase S58A (K26M start, C-terminal H8 tag) (Bdellovibrio bacteriovorus HD100, UniProt Q6MPN2 26-436, K26M | S58A)
T2 construct: Bd0816 of Bdellovibrio bacteriovorus HD100, starting at K26M; active site serine mutated to alanine (S58A); Expression of wild-type Bd0816 was toxic, so the S58A mutant was used for the complex; It is a trimer in the crystal, while a 1:1 heterodimer with Bd3460 is said to dominate in solution; also called Bd0816 S58A; tagged Bd0816; source: E. coli T7 express, co-expressed from pCDF-Duet1 with …
T2 sequence (looked up): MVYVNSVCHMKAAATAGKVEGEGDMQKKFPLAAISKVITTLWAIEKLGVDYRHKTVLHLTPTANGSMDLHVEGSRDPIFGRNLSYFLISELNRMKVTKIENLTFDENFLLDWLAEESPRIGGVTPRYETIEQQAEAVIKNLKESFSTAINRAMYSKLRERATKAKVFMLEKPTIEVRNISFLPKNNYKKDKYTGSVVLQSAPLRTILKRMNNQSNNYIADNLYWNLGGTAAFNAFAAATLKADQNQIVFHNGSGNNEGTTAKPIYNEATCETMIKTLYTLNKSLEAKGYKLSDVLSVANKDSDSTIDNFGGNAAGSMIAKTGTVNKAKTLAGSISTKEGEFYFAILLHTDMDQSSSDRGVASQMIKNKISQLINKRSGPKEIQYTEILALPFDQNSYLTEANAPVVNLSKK

T3: Bd3459 DD-endopeptidase, new construct starting post signal peptide with K38M, C-terminal H8 tag (Bdellovibrio bacteriovorus HD100, UniProt Q6MHT0 38-446, K38M)
T3 construct: Bd3459 of Bdellovibrio bacteriovorus HD100, predicted secreted form, starting post signal peptide with K38 mutated to become the new N-terminal methionine; The active site serine S70 is unchanged: the crystals of this complex could be acylated with penicillin G. PDB 5CEB holds the same limits with S70A; also called tagged Bd3459; Bd3459^M; source: E. coli T7 express, co-expressed from pCDF-Duet1 …
T3 sequence (looked up): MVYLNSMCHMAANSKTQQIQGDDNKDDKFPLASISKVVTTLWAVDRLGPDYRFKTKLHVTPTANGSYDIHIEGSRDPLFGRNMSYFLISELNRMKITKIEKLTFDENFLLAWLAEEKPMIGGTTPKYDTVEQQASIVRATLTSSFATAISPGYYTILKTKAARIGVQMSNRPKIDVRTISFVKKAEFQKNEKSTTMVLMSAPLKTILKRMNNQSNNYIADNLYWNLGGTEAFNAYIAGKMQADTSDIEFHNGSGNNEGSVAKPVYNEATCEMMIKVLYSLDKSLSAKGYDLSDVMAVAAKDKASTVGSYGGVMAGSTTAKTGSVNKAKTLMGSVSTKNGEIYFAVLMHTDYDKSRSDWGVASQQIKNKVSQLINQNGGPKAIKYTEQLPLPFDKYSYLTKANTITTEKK


Assays:
[1] = biological target: T1, Bd3459:Bd3460 complex (Bd3459^M/Bd3460); experiment: X-ray crystallography, […] A, crystal soak; format: binding; conditions: covalent; acylation of active-site serine (Ser70) of Bd3459; pre-grown complex crystals soaked with 2 mM penicillin G for 1 h
[2] = biological target: Bd3459 DD-endopeptidase, purified, active site serine acylated by penicillin G (Bdellovibrio bacteriovorus HD100) (UniProt Q6MHT0); experiment: other fluorescence titration; as a2, but Bd3459 pre-incubated with 0.75 mM penicillin G before titration with Bd3460
[3] = biological target: Bd3459 DD-endopeptidase, purified (original construct, A37M start) (Bdellovibrio bacteriovorus HD100) (UniProt Q6MHT0); experiment: other fluorescence titration; intrinsic tryptophan fluorescence, excitation 280 nm, change of emission at 340 nm; 10 uM Bd3459 in the cuvette, Bd3460 titrated in; 25 °C; buffer B with Tris (10 mM pH 7.2, 0.25 M NaCl); one site-specific binding isotherm
[4] = biological target: T2, Bd0816 DD-endopeptidase S58A (K26M …); experiment: co-purification (His-tag affinity); H8-tagged endopeptidase and untagged Bd3460 co-expressed in E. coli and purified together on a His column; buffer C (20 mM imidazole pH 8.0, 0.4 M NaCl, 0.05% w/v Tween20); conditions: partners not purified
[5] = biological target: T3, Bd3459 DD-endopeptidase, new construct …; experiment: as above; conditions: partners not purified

fold reduction in affinity against unacylated Bd3459 [2] [fold] | Kd [3] [µM] | stoichiometry N [4] | stoichiometry N [5] | Molecule | X-ray crystallography, 2.02 A, crystal soak [1]
 |  |  |  | CC1(C)S[C@@H]2[C@H](NC(=O)Cc3ccccc3)C(=O)N2[C@H]1C(=O)O [penicillin G] | acylating pre-grown Bd3459:Bd3460 complex crystals with penicillin G
2 | 26.8 | 1 | 1 | Bd3460, exported domain (amino acids 26-220), untagged, co-expressed with an endopeptidase (natural protein, Bdellovibrio bacteriovorus HD100, UniProt Q6MHS9 25-220, looked up, The only change is the start methionine in place of A25; also called untagged Bd3460; source: E. coli T7 express, co-expressed from pCDF-Duet1 with the H8-tagged endopeptidase, co-purified (His column)) MSGKSSKALNEAAEQGDLAKVKNLVQKNKIDLNAQDETGMTPLMNAAMGGNLDIVKFLLSKKVNLELKNNGGETALAFAVTNDAYDVAEELIKAGANVDIIVAGDEGDTLFMRAAQNNKKTAESILAKNKSLINKANTLGETALFAVARYGTPADIDFLIKKGADLKLKNKKGQTALDVAKEASNQDTAKALSKKK | 
